Laboratory results as given in patent publication US20020164690A1.

What was measured:
human IL-13 (human) = human IL-13 (human) (UniProt P35225); assay: cell-based or functional assay
[1] = target: recombinant human IL-1 (human); assay: cell-based or functional assay
[2] = target: CNTF receptor on EW-1 cells (CNTFRα, gp130 and LIFRβ) (UniProt P26992); assay: Scatchard analysis on EW-1 cells, two-site fit; site not assigned in words
CNTFRα on PC12D cells = CNTFRα on PC12D cells (UniProt Q08406); assay: Scatchard analysis of 125I-CNTF saturation binding on PC12D cells, two-site fit; low affinity site, said to correspond to CNTF with CNTFRα
CNTFRα on PC12D cells, sequence (Q08406 23-342 limits assumed): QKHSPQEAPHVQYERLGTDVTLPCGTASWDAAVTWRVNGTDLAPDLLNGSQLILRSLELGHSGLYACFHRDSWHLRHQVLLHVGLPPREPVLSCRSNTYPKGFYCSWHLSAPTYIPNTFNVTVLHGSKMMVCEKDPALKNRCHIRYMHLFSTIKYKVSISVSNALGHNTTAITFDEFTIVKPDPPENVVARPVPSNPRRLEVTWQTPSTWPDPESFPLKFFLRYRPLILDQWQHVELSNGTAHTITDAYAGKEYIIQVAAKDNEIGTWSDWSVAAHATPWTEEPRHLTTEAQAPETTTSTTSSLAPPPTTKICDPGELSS

[3] = target: CNTFRα:β1 (CNTFRα and gp130) on PC12D cells (UniProt Q08406); assay: Scatchard analysis of 125I-CNTF saturation binding on PC12D cells, two-site fit; high affinity site, interpreted as the intermediate of CNTF, CNTFRα and gp130
CNTFRα:β1 (CNTFRα and gp130) on PC12D cells, sequence (Q08406 23-342 limits assumed, chain 1 of 2): as the sequence (Q08406 23-342 limits assumed) above
CNTFRα:β1 (CNTFRα and gp130) on PC12D cells, sequence (P40190 23-918 limits assumed, chain 2 of 2, further chain): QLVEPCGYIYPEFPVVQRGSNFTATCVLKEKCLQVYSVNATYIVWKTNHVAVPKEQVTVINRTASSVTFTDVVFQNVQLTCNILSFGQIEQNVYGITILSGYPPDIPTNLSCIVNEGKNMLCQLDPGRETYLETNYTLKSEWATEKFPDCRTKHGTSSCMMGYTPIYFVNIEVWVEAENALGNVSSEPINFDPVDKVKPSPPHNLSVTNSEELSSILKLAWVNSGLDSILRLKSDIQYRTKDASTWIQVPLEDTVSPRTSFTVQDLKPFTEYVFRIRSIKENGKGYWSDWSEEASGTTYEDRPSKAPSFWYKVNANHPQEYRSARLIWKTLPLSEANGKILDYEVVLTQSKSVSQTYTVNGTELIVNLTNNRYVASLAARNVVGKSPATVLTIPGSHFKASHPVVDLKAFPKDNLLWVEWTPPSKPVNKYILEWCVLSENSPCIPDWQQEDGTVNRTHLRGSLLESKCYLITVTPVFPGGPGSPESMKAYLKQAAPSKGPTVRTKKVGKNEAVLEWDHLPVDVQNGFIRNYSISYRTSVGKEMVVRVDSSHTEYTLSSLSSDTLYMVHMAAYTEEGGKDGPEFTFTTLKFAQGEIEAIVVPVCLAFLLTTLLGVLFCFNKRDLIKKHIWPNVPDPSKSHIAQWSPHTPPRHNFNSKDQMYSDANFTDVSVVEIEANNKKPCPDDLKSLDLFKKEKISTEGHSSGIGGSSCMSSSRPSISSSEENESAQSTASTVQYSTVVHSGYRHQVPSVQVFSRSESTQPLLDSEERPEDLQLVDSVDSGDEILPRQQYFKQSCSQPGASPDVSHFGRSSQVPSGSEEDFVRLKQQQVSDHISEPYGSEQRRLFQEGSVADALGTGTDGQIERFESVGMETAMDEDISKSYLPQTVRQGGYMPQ

human IL-4 (human) = human IL-4 (human) (UniProt P05112); assay: cell-based or functional assay
human IL-4 (human), sequence (P05112 25-153 limits assumed): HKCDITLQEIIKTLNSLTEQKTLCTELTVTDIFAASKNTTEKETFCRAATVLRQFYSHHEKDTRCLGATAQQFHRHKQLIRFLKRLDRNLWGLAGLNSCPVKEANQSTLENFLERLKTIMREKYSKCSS

human IL-13 (human), sequence (P35225 35-146 limits assumed): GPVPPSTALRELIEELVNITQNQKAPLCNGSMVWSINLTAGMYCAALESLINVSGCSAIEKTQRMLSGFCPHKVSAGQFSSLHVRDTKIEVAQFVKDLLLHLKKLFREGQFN
IL-1-RI.Fc, sequence (P14778 18-336): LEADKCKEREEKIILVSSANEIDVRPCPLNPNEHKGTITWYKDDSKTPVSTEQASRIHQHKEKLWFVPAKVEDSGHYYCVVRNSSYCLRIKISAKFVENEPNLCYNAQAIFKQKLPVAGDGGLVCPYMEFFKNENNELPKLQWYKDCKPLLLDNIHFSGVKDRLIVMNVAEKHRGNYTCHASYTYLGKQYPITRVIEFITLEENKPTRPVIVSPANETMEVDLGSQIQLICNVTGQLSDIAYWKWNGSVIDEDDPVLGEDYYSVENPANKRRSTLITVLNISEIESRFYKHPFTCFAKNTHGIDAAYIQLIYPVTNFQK
CNTF receptor on EW-1 cells (CNTFRα, gp130 and LIFRβ), sequence (P26992 23-342 limits assumed, chain 1 of 3): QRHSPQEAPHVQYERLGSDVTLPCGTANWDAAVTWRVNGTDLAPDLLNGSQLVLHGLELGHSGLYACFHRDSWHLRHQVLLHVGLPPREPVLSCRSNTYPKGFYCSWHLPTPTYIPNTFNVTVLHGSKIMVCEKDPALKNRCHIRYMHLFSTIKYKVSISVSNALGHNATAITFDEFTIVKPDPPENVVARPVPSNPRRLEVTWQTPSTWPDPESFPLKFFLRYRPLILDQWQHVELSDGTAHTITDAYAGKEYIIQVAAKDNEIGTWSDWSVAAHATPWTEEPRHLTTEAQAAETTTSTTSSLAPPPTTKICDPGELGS
CNTF receptor on EW-1 cells (CNTFRα, gp130 and LIFRβ), sequence (P40189 23-918 limits assumed, chain 2 of 3, further chain): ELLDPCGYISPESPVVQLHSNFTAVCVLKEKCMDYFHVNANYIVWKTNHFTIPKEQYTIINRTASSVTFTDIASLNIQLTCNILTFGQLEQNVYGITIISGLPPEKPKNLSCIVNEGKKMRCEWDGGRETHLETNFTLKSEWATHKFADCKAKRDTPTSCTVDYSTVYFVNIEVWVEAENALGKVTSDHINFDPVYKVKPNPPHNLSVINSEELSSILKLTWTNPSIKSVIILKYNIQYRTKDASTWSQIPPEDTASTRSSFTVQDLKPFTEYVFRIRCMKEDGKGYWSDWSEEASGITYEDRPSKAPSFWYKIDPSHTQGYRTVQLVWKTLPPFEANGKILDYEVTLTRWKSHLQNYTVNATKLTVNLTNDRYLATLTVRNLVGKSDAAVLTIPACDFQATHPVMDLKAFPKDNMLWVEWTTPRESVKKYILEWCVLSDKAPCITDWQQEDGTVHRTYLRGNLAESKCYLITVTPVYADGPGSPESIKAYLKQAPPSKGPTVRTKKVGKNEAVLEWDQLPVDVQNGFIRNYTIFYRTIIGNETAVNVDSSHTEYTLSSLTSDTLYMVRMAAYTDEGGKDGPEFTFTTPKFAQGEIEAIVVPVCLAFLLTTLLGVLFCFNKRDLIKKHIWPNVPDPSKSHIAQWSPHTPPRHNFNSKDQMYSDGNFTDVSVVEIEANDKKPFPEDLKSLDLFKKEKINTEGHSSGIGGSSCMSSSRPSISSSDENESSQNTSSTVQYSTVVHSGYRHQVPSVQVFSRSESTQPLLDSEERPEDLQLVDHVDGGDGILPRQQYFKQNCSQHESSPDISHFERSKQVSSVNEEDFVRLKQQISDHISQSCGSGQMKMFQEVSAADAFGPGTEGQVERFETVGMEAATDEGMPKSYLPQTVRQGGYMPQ
CNTF receptor on EW-1 cells (CNTFRα, gp130 and LIFRβ), sequence (P42702 45-1097 limits assumed, chain 3 of 3, further chain): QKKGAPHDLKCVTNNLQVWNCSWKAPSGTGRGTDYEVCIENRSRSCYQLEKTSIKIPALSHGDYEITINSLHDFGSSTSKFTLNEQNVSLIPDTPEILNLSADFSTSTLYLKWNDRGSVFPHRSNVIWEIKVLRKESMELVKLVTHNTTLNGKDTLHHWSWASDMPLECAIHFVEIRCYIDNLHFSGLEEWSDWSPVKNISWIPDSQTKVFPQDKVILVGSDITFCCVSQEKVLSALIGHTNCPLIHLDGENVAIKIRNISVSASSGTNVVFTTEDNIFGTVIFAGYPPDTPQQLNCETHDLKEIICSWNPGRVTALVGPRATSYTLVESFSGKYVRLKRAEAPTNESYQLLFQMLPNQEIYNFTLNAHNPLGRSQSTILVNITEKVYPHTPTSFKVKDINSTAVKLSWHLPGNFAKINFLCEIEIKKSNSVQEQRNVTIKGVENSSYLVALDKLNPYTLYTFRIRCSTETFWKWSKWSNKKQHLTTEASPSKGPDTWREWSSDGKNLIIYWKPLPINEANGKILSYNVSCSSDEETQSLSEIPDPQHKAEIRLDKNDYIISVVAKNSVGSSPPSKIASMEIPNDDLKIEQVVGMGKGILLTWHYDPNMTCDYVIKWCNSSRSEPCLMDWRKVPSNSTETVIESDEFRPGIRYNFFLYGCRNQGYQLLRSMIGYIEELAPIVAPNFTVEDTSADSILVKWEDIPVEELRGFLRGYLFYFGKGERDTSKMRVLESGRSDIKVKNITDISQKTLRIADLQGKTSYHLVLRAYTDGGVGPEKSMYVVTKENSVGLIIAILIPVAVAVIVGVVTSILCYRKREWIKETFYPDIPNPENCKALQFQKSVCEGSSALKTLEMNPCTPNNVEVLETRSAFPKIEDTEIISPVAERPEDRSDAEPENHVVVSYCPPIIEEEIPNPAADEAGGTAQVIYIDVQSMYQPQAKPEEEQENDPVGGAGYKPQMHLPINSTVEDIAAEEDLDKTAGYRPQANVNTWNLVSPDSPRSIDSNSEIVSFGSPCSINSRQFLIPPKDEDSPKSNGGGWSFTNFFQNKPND

IL-4Rα.IL-13Rα1.Fc (from UniProt P24394 26-232; P78552 22-343) (Fc fusion)
TF1 bioassay: IL-13 concentration at which growth is inhibited by 50% (10 nM trap) (human IL-13 (human)): 4 to 5 nM | TF1 bioassay: IL-13 concentration up to which 10 nM trap blocks growth (human IL-13 (human)): 2 nM

IL-1-RI.Fc (from UniProt P14778 18-336) (Fc fusion)
IL-1-dependent production of IL-6 by MRC5 cells: IL-1 concentration blocked [1]: 10 to 20 pM

125I-CNTF (ligand)
Kd [2]: 1 nM | Kd (CNTFRα on PC12D cells): 3.4 nM | Kd [3]: 0.009 nM

IL-4/IL-13 Trap 1132 (from UniProt P24394 26-232; P78552 27-343) (Fc fusion)
TF1 bioassay: activity against IL-4/IL-13 Trap 943 (fold (against Trap 943)) (human IL-13 (human)): 2 to 3

IL-13Rα1.IL-4Rα.Fc (from UniProt P78552 22-343; P24394 26-232) (Fc fusion)
TF1 bioassay: IL-13 concentration at which growth is inhibited by 50% (10 nM trap) (human IL-13 (human)): 4 to 5 nM | TF1 bioassay: IL-13 concentration up to which 10 nM trap blocks growth (human IL-13 (human)): 2 nM | TF1 bioassay: IL-4 concentration at which growth is inhibited by 50% (10 nM trap) (human IL-4 (human)): 3 to 4 nM | TF1 bioassay: IL-4 concentration up to which 10 nM trap blocks growth (human IL-4 (human)): 1 nM
